The target of this assay is full-length AMC011 Env trimer (HIV-1). Kind of assay: negative-stain EM.

For two substances, stoichiometry N (Fab per trimer) results are on record in publication PMC6658011.

Regarding PGT145 Fab, the stoichiometry N (Fab per trimer) was 1.

In turn, PGT151 Fab yielded a stoichiometry N (Fab per trimer) of 2.
